Test system: MS2 coat protein
Experiment: apparent KD of MS2 coat protein; designed switch direction (-1 OFF switch, 1 ON switch): -1; higher = weaker reporter binding
Method in brief: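 Three titration conditions were used: no input, 200 uM small-molecule ligand, and an oligonucleotide input. In each, SNAP-549-labelled MS2 coat protein was raised from 0.7 or 1.5 nM, doubling, to 3 µM over designed RNA switches transcribed on Illumina chips by stalled E. coli RNA polymerase. Curve fits of normalised cluster fluorescence gave values whose per-design median over clusters is the apparent KD.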

[1] = input ligand: microRNA oligo, concentration not stated
[2] = Eterna round: R95, input ligand: FMN 200 uM
[3] = Eterna round: R95, input ligand: microRNA oligo, concentration not stated
[4] = Eterna round: R95, input ligand: none

| Sequence | apparent KD of MS2 coat protein (input ligand: FMN 200 uM) [nM] | apparent KD of MS2 coat protein [1] [nM] | apparent KD of MS2 coat protein (input ligand: none) [nM] | apparent KD of MS2 coat protein [2] [nM] | apparent KD of MS2 coat protein [3] [nM] | apparent KD of MS2 coat protein [4] [nM] |
| --- | --- | --- | --- | --- | --- | --- |
| UUGUGAGGUGUAGGAUAUUGUUGUUGUUUUUAGCGAGAAGGACAUGAGGAUCACCCAUGUGUCGUGUUUUUUUUUUUUUUUUUU [simply blue] (Eterna round: R96, puzzle: Exclusion NG 1) | 78.9 | 93.5 | 59.1 | – | – | – |
| UUGUUACAUGAGGAUCACCCAUGUGAGGAUAUGGUUCAGUAAUGUAAUGUAAAGUACUCCAGAAGGCACAUGUU [1st #27] (Eterna round: R97, puzzle: Exclusion 1) | 1510 | – | 809 | – | – | – |
| UUGUUAUAUGUAGGAUAUGCAUAUUAUUAUUAUGCAGAAGGACAUGAGGAUCACCCAUGUAUAUUAUUAUUAUAUAUUAUAUAU [Title] (Eterna round: R96, puzzle: Exclusion NG 1) | – | 22.4 | – | – | – | – |
| UUGUUAUAUGUAGGAUAUGCGUAUUAUUAUUAUGCAGAAGGACAUGAGGAUCACCCAUGUGUAUUAUUAUUAUAUAUUAUAUAU [Title] (Eterna round: R96, puzzle: Exclusion NG 1) | 41.3 | 15.5 | 21.1 | – | – | – |
| UUGUUAUGUGUAGGAUAUGCAUAUUAUUAUUAUGCAGAAGGACAUGAGGAUCACCCAUGUGUAUUGUUAUUAUAUAUUAUAUAU [Title] (Eterna round: R96, puzzle: Exclusion NG 1) | – | 17.1 | – | – | – | – |
| UUGUUAUGUGUAGGAUAUGCGUAUUAUUAUUAUGCAGAAGGACAUGAGGAUCACCCAUGUGUAUUAUUAUUAUAUAUUAUAUAU [Title] (Eterna round: R96, puzzle: Exclusion NG 1) | 41.2 | 20.4 | 22 | – | – | – |
| UUGUUAUGUGUAGGAUAUGCGUAUUAUUAUUAUGCAGAAGGACAUGAGGAUCACCCAUGUGUAUUGUUAUUAUAUAUUAUAUAU [Title] (Eterna round: R96, puzzle: Exclusion NG 1) | 32.1 | 16 | 21.9 | – | – | – |
| UUGUUGUAUGUAGGAUAUGCAUAUUAUUAUUAUGCAGAAGGACAUGAGGAUCACCCAUGUAUGUUAUUAUUAUAUGUUAUGUGU [Title] (Eterna round: R96, puzzle: Exclusion NG 1) | – | 32 | – | – | – | – |
| UUGUUGUAUGUAGGAUAUGCAUAUUAUUAUUAUGCAGAAGGACAUGAGGAUCACCCAUGUAUGUUAUUAUUAUGUGUUAUGUGU [Title] (Eterna round: R96, puzzle: Exclusion NG 1) | – | 33.9 | – | – | – | – |
| UUUAAAAUUUCAAUCUUCGCUGGCAAACUUGCGCCAGCUACAUGAGGAUCACCCAUGUUUUUUGCCCGUCUUAUUCU [Inisti] (puzzle: Sensor v3, turn-off variant 2) | – | – | – | 24.3 | 170 | 26.7 |
| UUUAACAAGCCAGAUCCUCACAUGAGGAUCACCCAUGUGCUCGUCUGAUUUUGUACUAUCACGUUUGUGAUAGUGUU [Level Boss var2-07] (puzzle: Sensor v3, turn-off variant 1) | – | – | – | 240 | 19.1 | 124 |
| UUUAACAAGCCAGAUCCUCACAUGAGGAUCACCCAUGUGCUCGUCUGAUUUUGUACUAUCAUGUGAGUGAUAGUGUU [Level Boss var2-06] (Eterna round: R96, puzzle: Sensor v3, turn-off variant 1) | 200 | 56.9 | 205 | – | – | – |
| UUUAACAAGCCAGAUCCUCACAUGAGGAUCACCCAUGUGCUCGUCUGAUUUUGUACUAUCAUGUGAGUGAUAGUGUU [Level Boss var2-06] (puzzle: Sensor v3, turn-off variant 1) | – | – | – | 67.3 | 24.7 | 115 |
| UUUAACAGAGGAUAUGCGAAUAAAUAAAACUUUUUUUUUUAACAUGAGGAUCACCCAUGUAGAAGGCUGAUAUU [Ex2 #23] (Eterna round: R97, puzzle: Exclusion 2) | 34.9 | – | 29.9 | – | – | – |
| UUUAACGAUGAGGAUAUAUGAUAUCAAAGCAUCAUAGAAGGCAUCACAUGAGGAUCACCCAUGUGAUCUUCUUU [Mat - Exclusion 6 - JL Mod - D29] (Eterna round: R97, puzzle: Exclusion 6) | 69.6 | – | 16.6 | – | – | – |
| UUUAAGGGAAUUAAGAUCACAUGAGGAUCACCCAUGUAUAUAUAGGAUAUCAGCUCGUGUAGAGCUGAGAAGGAUAUAUACAUA [ExNG3/6-A3] (Eterna round: R96, puzzle: Exclusion NG 3) | 101 | 32.8 | 132 | – | – | – |
